Assay results published in the domain aggregation screens of Martell et al. (2025).

Experiment: soluble fraction after stress (log2 fold change); higher = more stays soluble; pooled small domains, quantitative proteomics
Settings: stress: 50 degC
Procedure, shortened: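 Pooled custom libraries of small protein domains were measured in a high-throughput format, with quantitative proteomics as the read-out. Each library was stressed at 50°C. Aggregation propensity is given as the base-two logarithm of the fold change in how much of each protein stays soluble after the stress. Higher values mean a larger share of the protein remains in solution.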

Sequence: HMLEVTQTDVKMYTTSGTPVYAAPDLNSAIVVYLERFVNVTVTGITDNGFYRVNLNGDYYIPGPYLISSV
- soluble fraction (log2): -0.369

Sequence: HMRITEQRRTLAKLFADTPGYLSPKDVYDYMGRFYPGLSFDTVYRNLRLLDELGVLEQVVFEDGVKFK
- soluble fraction (log2): -0.718

Sequence: HMLADTNIHTIALKHRLANEVVEQVRPFLPETATIRAYDNMLILKSDRATLANVEQLIKKLDT
- soluble fraction (log2): 0.0983

Sequence: HMGTLPSLAPSGEKTVRLPNLAGWSLRETMEILQKGGLQLLPIGSGISFKQSPPPGTTLNEGDAVTVWF
- soluble fraction (log2): 0.0292

Sequence: HMGDRRSVFEQSVLDAIKSLVKQGELATTKAISDHIGTNYQGNVSRAITALLADNKIKKLPKEGVLQPYEA
- soluble fraction (log2): 0.0535

Sequence: HMNLTSNDAYSRILNAIITSELRPGDTVTEIQLAQKFGFGRTPVREAIMRLENEGFIVSAERKKRVYIL
- soluble fraction (log2): -2

Sequence: HMEDYYKILGVSKDASIDDIKKSYRKLSLQNHPDRNKSPQASENFAKINSAYEVLSDQRKKRQYDMQQSM
- soluble fraction (log2): 0.0897

Sequence: HMTMLLEYNVSRSSKWMNKTIMDAEIPDDILIVMIKRNGQVIVPKGSTEILENDILVLSGNNLNEVALG
- soluble fraction (log2): -2.33

Sequence: HMETVQTGTVKVSNSLNVRSGAGTNYSVLGSLSNGAKVEIVGTSGSWYKIKYGSGYGYVSKDYVTVS
- soluble fraction (log2): -0.0163

Sequence: HMAVEETFTITWLDRDGTVLEVDENVLKGTMPSFDGHIPPHDGLEFKGWDPEVVPVEGDATYTATYKA
- soluble fraction (log2): -0.176

Sequence: HMKIAPRTAENQQLRKMILEIYTTSKKRVGPAKVRRMLLRDYGISISIGRVYRLMSTMNLPKMS
- soluble fraction (log2): -0.258

Sequence: HMKGTLPEMITSREEVVLKFMVNGWDAKRIASELDISVLTVRKHIANIYEKLHVQSKAEIISMAHQQKWFN
- soluble fraction (log2): -1.52

Sequence: HMNKPTFNIFNNRLTFPFKGDITIYSLDGKRVFSAYNESSVNLSFLNRGSYISEFNNSRSVLIL
- soluble fraction (log2): -1.39

Sequence: HMTDVRFISIPIQKEHPWNRKLVSELNLPPGTLLVFLRRTGENIVPNGKTMIQEGDVLVLGASAYR
- soluble fraction (log2): -0.295

Sequence: HMNMFDMRKTGARISQLRRAAGLTQAELAEKLGISYQAVSSWERGSNMPDIGKLLDLARILNTTVDALLSA
- soluble fraction (log2): -0.375

Sequence: HMVWPETEAIVTEDFIGKKRSEVQQEGVIFEFFGEGDMVIDQLPRGGVTLNESGRVWIYLGEDTF
- soluble fraction (log2): -0.423

Sequence: HMDSDFIKIEVLFNERNRLDLKAMMEASGFTDRGQFLSIMADLTGDENWDRNLDRGDIFYLPRSFTI
- soluble fraction (log2): -1.22

Sequence: HMTGMEKFLTIPSIRESTAAFEREYLIHYLDENAWQVSKTAAAIGIERTTLYKKMKQLGIVPIEE
- soluble fraction (log2): -2.07

Sequence: HMGMETQLSPKEKSIYTIIQNRPNIQSGEVSEKLAIPLPTVKRILSDLINKGLIEKQGSGRNVSYTI
- soluble fraction (log2): 0.254

Sequence: HMTAQLAAQERTHALDMFMGGYKFSSKPAENGVRAEFEKKNFTLEDGKFLGGDEFMKSLMENDDYKGAFV
- soluble fraction (log2): 0.375

Sequence: HMIITLNIENLKRARENAGLTQTQAAQKIGVSDGTYKNYEQGKREPNGDKIVTIANAFGVTTDYLLGR
- soluble fraction (log2): -0.334

Sequence: HMPQNVSVPDVTNMTQAEAESKLKEKNLAVGNIIPELSTTVEKDKVTRTNPESGSNVRKNSKVDIYVSQG
- soluble fraction (log2): 0.0455

Sequence: HMQISDTTELSTLITKVLSEQSDALVDFKNPKKQKQVIGYLTGQVLRASQGKANPGLVRSLLEEQLSALDS
- soluble fraction (log2): 0.124

Sequence: HMGPAAGVVEKYNLAHLSTGEMIRKEIAEGSDFGKMAAGIINKGELLSDEFVVALIENSIEHHKNVDGFLF
- soluble fraction (log2): -0.00841

Sequence: HMSVSATQMDAFVRQLRARLSSADGLDDAARLVRQDLEPFLGRFSDETERDFAAAIEQVRGSIRPVEI
- soluble fraction (log2): 0.0229

Sequence: HMERNAEDFAAKYQEIYQDMFRFALYTLKNRQEAEDVVSETVLDAWKGIEGLKNESAFSAWMFRILVNK
- soluble fraction (log2): 0.152

Sequence: HMVNFKLIGNKIAEARKKVNISQAQLAQRLFISSQAVGKWERGESMPDIITFNRLAEILGVDLNYFSE
- soluble fraction (log2): 0.0107

Sequence: HMVQARDQNIEEGRQLVLRELDRLDLVNESLTDVAADMNMKSVEDMYAAIGAGDLRVGQVVHAVLKRAD
- soluble fraction (log2): 0.00761

Sequence: HMAGFGDSLEKMSDAVEALKLLMSTEDARNDQNIQKIARELKDVFNKYRTHLRKSYPDQYDRIKSTL
- soluble fraction (log2): -0.299

Sequence: HMPEFKDMLKFFRMREHLSQSELAEKLGISASTVSMYEVGRRQPDFETEEKIADFFNTDLNTLRG
- soluble fraction (log2): -0.39

Sequence: HMKKTVTDSVELLTFLKDIFTNTSTNKLRKMLTTGRVTVNNIVIHKAKHILVQNDVVEIGDK
- soluble fraction (log2): -1.86

Sequence: HMKSILSEIPGIGPKKRKSLMMQFGSVKNISEASLKDLSSTKGINSNLSKEIFNFFSVEKNN
- soluble fraction (log2): -0.0118

Sequence: HMNKNLQLMINEIKKGLASEDIETRKKSVLMLSRIDAPEIIQVLEPLKDDSSEEIRKISSKIISVLSKKYT
- soluble fraction (log2): 0.168

Sequence: HMPTTRPEAEAHYETHQRYHDLQIDVEGREAFKVATGSLTLVQEFDEKDDYDLSIPTPRSPAILLTT
- soluble fraction (log2): 0.0218

Sequence: HMKVSRTAVKLHHANAVEVAKKLQPLFVVGDVQIEPVKDAGIILLKGPASTLADLRESIVQMDHTA
- soluble fraction (log2): -0.0461

Sequence: HMVSDISTQYQKIINEALDKQPEVKLADIVTMIKEQTSNKVQNGIVENVAKQMNGIEIIKIGQAKGVRRTT
- soluble fraction (log2): 0.116

Sequence: HMSDAVQLGLRLRAARERRGLSQQAVADALGLPRTAVTNMESGNRAVSTLELTKLAALYGQSTAFFLSP
- soluble fraction (log2): -0.1

Sequence: HMDRFRYYITEDSVQRGTYPYVDETTLKRFTSQLHKYEQGMISAYGYLEYSKPLTAEQIKDYTLMPSP
- soluble fraction (log2): 0.0317

Sequence: HMEKYIVNQEEQGKRLDIYVVNKSSELTRTAVQRLIEQEHILVNGRKQKASYKVLEGDIITIERV
- soluble fraction (log2): 0.573

Sequence: HMHEYSDIEHRILDAAREVFIRKGYDSATMGDIALLAGMSRTSVNYYFRNKERLFEAIFEEII
- soluble fraction (log2): -2.08

Sequence: HMDNRLFKMLYYLLDKERATAPELAAEFEVSTRTIYRDVEALSSAGIPIYAEPGRNGGIYLLQD
- soluble fraction (log2): -2.21

Sequence: HMAHLSPNDAARLVGVSRPLLNQILDEGRITFFETAGGHRKIKLAAVLAYIKERDEVAAQLAAART
- soluble fraction (log2): -0.746

Sequence: HMKEGGGYGQLRLKEAAIQHAFDLQNALQFIAERGYQAHENTTLKEAANALNLKPIELLELLKSSQ
- soluble fraction (log2): 0.281

Sequence: HMKKYFPPKSRFNPNKYLLKDWMALGLSEKQSQSILNFIQRGIYSNSALEKIYVMPEEVFTLIKDSTYYEE
- soluble fraction (log2): -1.34

Sequence: HMKQNVEAVIKERAIEKARAQVKAVSTHMALEAQSLSKEQLEFEIERIAAQIIDKMPSDFWND
- soluble fraction (log2): -0.386

Sequence: HMLLNLSPIETQVLRLIQQDKKVTYESIGKELTIGQTKVYKVLGHLKELNVIERIGGRTYGHWHILL
- soluble fraction (log2): -1.03

Sequence: HMVTLYDGFLSELRKRIPRGAELTNTLVDMLYIEREAVYRRLRGEVPFTFIEVMTVSKELGISLDNLAQA
- soluble fraction (log2): -1.23

Sequence: HMLPTVSITGHIFIRSGSPLNRIFVGEKIYHVGDHIDRDWVIESIGIDTLTIRSGTLSTQLPL
- soluble fraction (log2): -2.87

Sequence: HMGLIDNLTRIMEKKNISAYQLEKAGIVKQTTFTSWKKGTQPALDKIIKIMQYIEVTPNELFGY
- soluble fraction (log2): -1.39

Sequence: HMRFKPLAEILAAVQTRYAGRVLDVELDRDQAGRNVYEVKLLAADGSRREIHIDAVTGKEVSL
- soluble fraction (log2): -0.0325

Sequence: HMGAVFEFIMEEEEPERIDKLLSSALPDLSRSYLQKLVKEGAVLVNKKEVKPNHKVNPGDVVEISVPEPE
- soluble fraction (log2): 0.18

Sequence: HMDIFFEKIFNILIGYNQNQENLISEKSILNFHLSHKSNSNFEYIPDEKTPKYIWKYLSNYNLLE
- soluble fraction (log2): -0.359

Sequence: HMRGAIKMAEEQMAGHKKIGSISGTAPTQGELEKKFAMAAAQMGARYYVITGLSNNNYAFGNADIY
- soluble fraction (log2): -0.316

Sequence: HMIPYSDLLKLLSNDAMPKFRNKDGWAKIHALETYLASRWSYQEYGFASFTVLLETVHNAEIRNDSVRLM
- soluble fraction (log2): -0.343

Sequence: HMGIQYVASGHYARMETDAQGVSRLFPPESGAPDESDRLAALSPEVLTRLILPLGDFAPEDVEEMAVD
- soluble fraction (log2): 0.102

Sequence: HMEFGEVLAQLRQKRHISQAELGRAIFVSGGTISNYEKGVHFPDVEKLLLLADYFNVTTDYLLGRT
- soluble fraction (log2): -2.04

Sequence: HMFMKNTEVALAIKGKFSNQTTITSKELVLFLSDLFPELSNKTIPWKINQLKAENLIYQTGRGIYTFN
- soluble fraction (log2): -2.57

Sequence: HMALENTDLYAHLRLSHTASVPEIQAALSARVKHMPLQTWLLARKWLLHPRLRERYDGMWSVRFGA
- soluble fraction (log2): -2.62

Sequence: HMAEVDDESIKLYDGGYQSNTTKSRLNALLSEFGYDTEHVFQKQFEWFISIFDLTEKAMRTVPFSNGMRL
- soluble fraction (log2): -0.0834

Sequence: HMYALGIPVSQYRRTTQVLGHESSYPIAYEDEKQDDDFYLFKFPNIDEYDFKKIVILLKQNGITT
- soluble fraction (log2): -1.61

Sequence: HMGQSKNERMLELVELLNKASRSYYQDAQEIMSNYEYDRLYDELQNLEKELGITLSNSPTVN
- soluble fraction (log2): -0.0536

Sequence: HMEDQLDSLKDIIYDYLENNELYYNDLQEFKKIIIENMEFIHPNLNHKLIDNNFFKLINFKLEYNF
- soluble fraction (log2): -0.0455

Sequence: HMTKEEFLYELKKELSALDSAEATAYNLRYYSDYIDAEIAKGRSEQEVLDELGNPRWLVNSIKESG
- soluble fraction (log2): 0.122

Sequence: HMVGIAEAMKHIADEDYGDLSAIFKQIFSDTDGGRNFSDAIRTQMRSTDSSGLRKVLSTLIMSIEE
- soluble fraction (log2): -0.498

Sequence: HMDRENNITAGREILEKELSRLALNMKMVNLQDYAARFNVKHSDDILAGIGAGDIRPAHIVNAIAEKLT
- soluble fraction (log2): 0.144

Sequence: HMIISMKKGATPQEISHVRKLIEELGYKVHESQGSERMVFGAIGDERSKHRLTSLEAQPGVEKVIPILA
- soluble fraction (log2): 0.191

Sequence: HMHGYLSDPAARLIRARRKTLSIRITQEGNLEIRAPLGMPKGEIEAFLKEKAQWIETHRAKVLAEYA
- soluble fraction (log2): -2.24

Sequence: HMKVPDVQYMNKDSAIEALTANELKYTIVEAENENVAAGVVISQSVERDSQVAPGTSVELVVSTG
- soluble fraction (log2): 0.0357

Sequence: HMQDPRITRTRGLILQAFDALLVEKGFHALSVQAIAGRAGINRATFYAHFADKYALLDTSIQE
- soluble fraction (log2): 0.268
